Results: the nanobody polyreactivity screen of Harvey et al. (2022)

Test: yeast display, Sf9 membrane polyspecificity reagent, FACS + sequencing; frameworks hold sequencing errors
How it was run: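 Galactose induction of a Saccharomyces cerevisiae BJ5465 synthetic nanobody display library ran 36–48 hours. The cells were then stained for 1 hour at 4 °C with 10% biotinylated, detergent-solubilized Sf9 membrane reagent, pulled down on streptavidin microbeads and FACS-sorted into low and high (top ~1%) gates on expression and reagent-binding fluorescence. Labels for polyreactivity follow the gate of origin.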

Sequence	polyreactivity (PSR sort gate)
QVQLVESGGGLVQAGGSLRLSCAASGNIFSSNAMGWYRQAPGKERELDAAITRSGGSTYYADSVKGRFTISRDNAKNTVYLQMNSLKPEDTAVYYCAARHYPRNSWGYDYWGQGTQVTVSS	high polyreactivity
QVQLVESGGGLVQAGGSLRLSCAASGFTFKTYVMGWYRQAPGKERELVAAISRRGGSTHYADSVKGRFTISRDNAKNTVYLQMNSLKPEVTAVYYCAARHPFAGTVWGVVSYDYWGQGTLVTVSS	high polyreactivity
QVQLVESGGGIVQAGGSLRLSCAASGRIFANYAKGWYRQAPGKERELVAAISRSGGSTSYADSVKGRFTISRDNAKYTVYLQMNSLKPEETAVSYCAVVSPRQSYYYWGQGTQVTVSS	high polyreactivity
QGQRVESGGGLVQAGGSLRLSCAASGFIFSYYTMGWYRQAPGKERELVAAISSTGRTNYADSVKGRFTISRDNAKHTVYLQMNSLKPDDTAFYYCNAAKLSYGPWRGYYKLDVWGQGTQVTVSS	high polyreactivity
QVQLVESGGGLVQAGGSLRLSCAASGSTFYIYAMGWYRQAPGKERELVARITRGGTTYADSVKGRFTISRDNAKNTVYLQMNSLKLEDTAVYYCNAASKTTRYYQAFYSGGGYWGQGTQVTVSS	high polyreactivity
QVQLVESGGGLVQAGGSLRLSCAASGRIFLINAMGWSRQAPGKERELDATISRSGASTDYADSVKGRFTISRDNAKNTVYLQMNSLKPEDTAVYYCNAKVYKRRVVPYDYWGQGTQVTVSS	high polyreactivity
QVQLVESGGGLVQAGGSLRLNCAASGSIFLIYAMGWYRQATGKERELVAGINWSGSRTYNADSVKGRFTISRDNAKNTVYLQMNSLKPEDTAVYYCAARVRRPLYSAYDSWGQGTQVTVSS	low polyreactivity
QVQHVESGGGLVQAGGSLRLSCAASGFIFYIYAMGWYRQAPGKERELVAAITSGGSTYYADSVKGRFTISRDNAKNTVYFQMNSLKPEDTAVFYCNRRSGHVHEYDYWGQGTQVTVSS	low polyreactivity
QVQLVESGGGLVQAGGSLRLSCAASGRIFPVNTMGWYRQAQGKVRELVAAITSGGGTYYADSVKGRFTISRDNAKNTVYLQMNSLKPEDTAVYYCNAPEGRKPYDSWGQGTQVTVSS	low polyreactivity
QVQLVESGGGLVQAGGSLRLRCAASGSIFVYNARGWYRPAPGKERELVPAISKSGGRTYYADSVKGRFTISRDNAKNTVYCQMHSLKPEDTAVYYCNALAGQRQGWEYDYWGQGTQVTVSS	high polyreactivity
QDQLVESGVGLVQAGGSLRLSCAASGRTFYYNTMGWYRPAPGKETEFVATITSTHDTNYADSVKGRFTISRDNAKNSVYLQMNSLKPEDTAVYYCAKGYLNYGRDWDFDYWGHGTQVTVSS	low polyreactivity
QVQLVESGGGLVQAGGSLRLSCAASGRTFYAYAMGWYRQAPGKERELVAAITSGASTYYADSVKGRFTISRDNAKNTVYLQMISLKPEDTAVYYCAKRVRYYKPGYDYWGQGTQVTVSS	low polyreactivity
QVQLVESGGGLVQAGGSLRLSCAASGRIFYSNTMGWNRQAPGKEREMVATITSGGSTNYADSVKGRFTISRDNAKNTVYFQMNILKPEDTAVYYCAADAYATHPFRSESDYWGQGTQVTVSS	low polyreactivity
QVQLVESGGGLVQAGGSLRLSCAASGSIILVYAMGWYRQAPGKERELVAGINSSGTSTYADSVKGRFTISRDNAKNTVYLQMNSLKPEDTAVYYCATPGIYYEMDYWGQGTQVTVSS	low polyreactivity
QVQLVESGGGLVQAGGSLRLSCAASGSTFGPNAMGWYRQAPGKERELVATISSGGSTYYADSVKGRFTISRDNAKNTVYLQMNSLKPEDTAVYYCAVRTIIRPVDLYDYWGQGTQVTVSS	low polyreactivity
QVQLVESGVCLVQAGGSLRLSCASSGLIIPPNAMGWYRQPPGKERELVASITRSGGSTYYADSVKGRFTISRDNAKNTVYVQMNSLTPEDTAVYYCAAYLDTSRYGVLYDYWGQGTQVTVSS	low polyreactivity
QVQLVESGGGLVQAGGSLRLSCAASGRTFYGYAMGWYRQAPGKERELVAAISKSGGRTYYADSVKGRFTISRDNAKNTVYLQMNSLKPEDSAVYYCNAPVTGAGTYPPYDSWGQGTQVTVSS	high polyreactivity
QVQLVESGGGLVQAGGSLRLSCAASGSTFKRYAMGWYRQAPGKERELVADISRGVRTYYADSVKGRFTISRDNAKNTVYLQMNSLKPEDTAVYYCATKYHRNTYEYEYWGQGTQVTVSS	high polyreactivity
QVQLQERGGGQVQAGGSLRLSCAASGTIFLYAFMGWYRQAPGKERELVAAIDVGTTTNYADSVKGRFTISRDNAKNTVYLQMNSLKPEDTAVYYCAANLGYLDDLGYWGQGTQVTVSS	low polyreactivity
QVQLVESGGGLVQAGGSLRLSFAASGSTFKFNAMGWYRQAPGKERELVATITSRGSRTYYADSVKGRFTISRDNAKNTVYLQMNSLKPEDTAVYYCAKVSKRVGFPTAMNYWGQGTQVTVSS	high polyreactivity
QVQLVETGGGLVQAGGSLRLSCAASGFIFRYYAMGWYRPAPGKERELVAVISSNGARTSYADSVKGRFTISRDNAKNTVYLQMNSLKPEDTADYYCNARAWSRFPPVGHDYWGQGTQVTVSS	high polyreactivity
QVQLVESGGCLFQEGGSLRLSCSASGRIFNTYAMVWYRQAPGKERELVARISSGGTTYYADSVKGRFTISRDNAKNTVYLQMNSLKPEDTAVYFCNVRAVTPTRSRPFRYDYWGQGTQVTVSS	high polyreactivity

Sequence	polyreactivity (PSR sort gate)
QVQLVESGGGLVQAGGRLRLSCSASGSTFGYYAMGWYRQAHGKQRELDASITWTGGSTYYADSVKGRFTISRDNAKYTVYLLMNSLKPEDTAVYYCAAQLEASYWLWTGYGYLGQGTQVTVSS	high polyreactivity
QVQLVESGGGLVQAGGSHRLSCAASGRTFYFYTMGWYRPAPGKESELVATIRWSAGSTYYADSVKGRFTISRDNAKNTVYLQMNSLKPEDTAVYYCNADPYVYSSWEYGYWGLGTQVTVSS	high polyreactivity
QVQLVESGGGLVQAGGSLRLSCAASGFTFWSYTMGRYRQPHGKETELVADISWSGGSTYYADSVKGRFTISRDNAKNTVYLQMNSLKPEDTAVLYCNADGPFWARRSSRYYWGQGTQVTVSS	high polyreactivity
QVQLVESGGGLVQAGGSLRLSCAASGRIFPFYAMGWYRQAPGKERELVAAISTRGGSTYYADSVKGRFTISRDNAKNTVYLQMNSLKPADTAVYYCAADVQAVGYDYWGQGTQVTVSS	high polyreactivity
QVQLVESGGGLVQAGGSLRLSCAASGRTFQYYAMGWYRQAPGKERELVAAISWSGASTYYADSVKGRFTISRDNAKNTVYLQMNSLKPEDTAVYYCAVKAGGSRYGYWGQGTHVTVSS	high polyreactivity
QVQLVESGGGLVQAGGSLRLSCAASGSTFYGYVMGWYRQAPGKERDFVAGITRGGSTNYADSVKGRFTISRDNAKNTVYLQMNSLKPEDTAVYYCATRYFSRYYYWGQGTQVTVSS	high polyreactivity
QVQLVESGGGLVQAGGSLRLSCAASGSTFGNNAMGWYRQAPGKERELVASINWNGGSTYYADSVKGRFTISRDNAKNTVYLQMNSLKPEDTAVYYCADDRVWAYWTYGYWGQGTQVTVSS	low polyreactivity
QVQLVESGGGLVQAGGSLRLICAASGRTFYVNAMGWYRQAPGKERELVATITDRGGRTYYADSVKGRFTISRDNAKNTVYLQMNSLKPEDTAVYYCAATRWYEVDYWGQGTQVTVSS	low polyreactivity
QVQLVESGGGLVQAGGSLRLSCAASGFTFVINDMGWYRQAPGTERELVADITSGGDTYYADSVKGRFTISRDNAKNTDYLQLNSLKPEDTAVYYCAADIYPDWIYLLYGYWGQGTQVTVSS	low polyreactivity
QVQLVESGGGLVQAGGSLRLSCAASGRTFYYYAMGGYRQAPGKERELVAAIRGGGGSTYADSVKGRFTISRDNAKNTVYLQMNSLKPEDTAVYYCNVVRTGRYPGFLTFDYWGQGTQVTVSS	high polyreactivity
QVQLVESGGGLVQAGGSLRLSCAASGRIFWYNTMGWYRQAPGKERELVATITTGGRTNYADSVKGRFTISRDNAKNTVYLQMNSLKPEDTAVYYCNAVRGLWVTWRYYYWGQGTQVTVSS	high polyreactivity
QVQHVESGGGLVQAGGSLRLSCAASGLTFELYAMGWYRQAPGKERELVAAITWSGGRTYDADSVKGRFTISRDNAKNTVYLQMNSLKPEDTAVYYCAADVYPGYVGSQEYDYWGQGTQVTVSS	low polyreactivity
QVLLVESGGGLVQAGGSLRLSCAASGYTFHVNAMGWYRQAPGKERELVAAINTSGDSTYYADSLKGRFTISRDNAKNTVYLQMNSLKPEDTAVYYCNAKGSVTRIGMEYDYWGQGTQVTVSW	low polyreactivity
QVQLVESGGGLVQAGCSLRLSCAASGLIFYTYAMGWYRQAPGKEREFVAAISRRGGSTYYADSVKGRFTISRDNAKNTVYLQMNSLKPEYTAVYYCNARYTYPRPYEEYYYWGQGTQVTVSS	high polyreactivity
QVQLVESGGVLVQAGGSLRLSCAASGFTFWSYAMGWYRQAPGKERELVAAISSGDNTYYADSVKGRFTISRDNAKNTVYLQMNSLKPEDTAVYYCNAFYYYEYDYWGQGTQVTVSS	low polyreactivity
QVQLVESGGGLVQAGGSLRLSCAASGNTFQRYTMGWYRQAPGKERELVAAINSSGGSTFYADSVKGRFTISRDNAKNTVYLQMNSLKPEDTAVYYCAASWHTPTVYDEYYYWGQGTQVTVSS	low polyreactivity
QVQLVESGGGLVQAGGSLRLSCAASGRTFSSNTMGWYRQAPGKERELVAAISSTDSTYYADSVKGRFTISRDNAKNTVYLQMNSLKPEDTAVYYCNKVVGFRSYFGGYGYWGQGTQVTVSS	high polyreactivity
QVQLVESGGGLVQAGGSLRLSCAASGSTFRIYAMGWYRQQHGKESEFVAAITGGGTHYADSVKGRFTISRDNAKNTVYLQMNRLKPEDTAVYFCAAGYFIRTLSRYRYDYWGQGTQVTVSS	high polyreactivity
QVQLVESGGGLVQAGGSLRLSCAASGFTFVNYAMGWYRQAPGKERELVAAIRRSGSRTYYADSVKGRFTISRDNAKNTVYLQINSLKPEDTAVYYCGAVCYRLYGYWGQGTQVTVSS	low polyreactivity
QVQLVESGGRLVQAGGSLRLTCAASGRTFNYYAMGWYRQAPGKERELVAAISRSGGSTYYADSVKGRFTISRDNAKNTVYLQMNSLKPEDTAVYYCNRDRGSIYGWGQGTQVTVSS	high polyreactivity
QVHLVESGGGLVQAGGSLRLSCAASGITFYLYAMGRYRQAPAKERELVAAINASGGSTYYADSVKGRFTISRDNAKNTVYLQMNSLKPEDSGVYYCAASTKKTRGFNYWGQGSQVTVSS	high polyreactivity
